Reference: the supplement of paper PMC9732359
± gives the uncertainty stated by the source.

Assay: protein stability index of a GFP-peptide fusion (yeast GPS) (PSI 1-4); higher = more stable; sorted into four equal gates, so the index is relative within each strain
Conditions: doa10∆
Procedure, shortened: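 The protein stability index of a peptide was calculated by multiplying its read frequency in each gate by that gate's number and adding the products. The peptides were tiled 17-residue stretches of yeast proteins, fused downstream of GFP on a Cherry-expressing plasmid and carried in yeast as a pooled library. Mid-log cultures in leucine-free medium were sorted into four equal gates by GFP/Cherry ratio, and each gate's plasmids were PCR-amplified and Illumina-sequenced.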

Sequence | protein stability index
EEKEESNLAATKSMVKI [RPN11] | 3.43 ± 0.12
EEKPGLIITRKAFKNNS [SMC4] | 2.89 ± 0.086
EELLAQYESQAPDGSAS [SWP82] | 3.02 ± 0.061
EELLQLFLNNFVSRIPI [IRR1] | 3.12 ± 0.058
EELRKHAQKRVSNASAR [SKI6] | 3.25 ± 0.23
EENGDSIKEHSTTMDGA [MED1] | 3.32 ± 0.19
EENSSSNGNNLPLNKPR [RGR1] | 3.24 ± 0.044
EEREAAASKVKLEEESK [RPC53] | 3.29 ± 0.081
EESINEFKSIEIEMKNK [SMC4] | 3.32 ± 0.21
EESWEKVVEFAITHMID [SCL1] | 2.62 ± 0.087
EEVNRCYLRWQHLRNEH [SNF2] | 3.27 ± 0.07
EEYDDDDDNSNVDYYNV [SNF2] | 2.89 ± 0.067
EFDEQYGTRPLVLPPVV [SNF2] | 3.08 ± 0.071
EFFHLQHYLDTATAPRL [QCR6] | 2.98 ± 0.057
EFKSIEIEMKNKLEKLN [SMC4] | 1.68 ± 0.058
EFLKWTPNVNVLVLHGD [ISW2] | 1.69 ± 0.064
EFLPLSLHILMIFWNDI [SRB8] | 1.36 ± 0.037
EFTENELNVDSMDVDDK [ITC1] | 3.18 ± 0.16
EFTKINTPLVGAAFKVI [YJL039C/NUP192] | 1.63 ± 0.039
EFVHKYLGEGPRMVRDV [RPT3] | 3.39 ± 0.14
EGDFLKSIIGKLTAERA [POP1] | 1.63 ± 0.14
EGHDWKAPTKLDDPEAV [DIS3] | 3.31 ± 0.057
EGIKETQAKRIFLQQFL [SWI1] | 2.37 ± 0.12
EGLNQRNQVQTENVAQA [YGR119C/NUP57] | 2.96 ± 0.12
EGNEKLAAVPAAGPASA [RPP2A] | 2.06 ± 0.061

Sequence | protein stability index
EGSTIRYLAVTLQDIGF [YMR129W/POM152] | 2.5 ± 0.048
EHEEKEKERETNKKGIK [RPN2] | 3.32 ± 0.24
EIDDFNDIDDLDMELAE [SEC65] | 2.68 ± 0.1
EIDTILSTLRMEADPSL [RPN9] | 3.04 ± 0.24
EIGGSDLKESMVKGLLK [ECM29] | 2.63 ± 0.23
EILVTELTAQGYDPALL [RPN2] | 2.8 ± 0.27
EINSEDYDNKTKLIGVL [SRP68] | 3.2 ± 0.15
EINSEMCHIVRKFHELN [GRR1] | 2.4 ± 0.057
EINYAFSMDEEFKNMDC [SIR3] | 3.09 ± 0.068
EITDASLNLQYVNYEIS [YML103C/NUP188] | 2.62 ± 0.05
EIYKQLNDRQEEISRLQ [YIL149C/MLP2] | 3.42 ± 0.08
EIYRISFQLSKIRRAAR [RPS9A] | 1.95 ± 0.043
EKDASGKPSFVFGASDK [YOR098C/NUP1] | 2.63 ± 0.067
EKDAVSVFGFRTQFGGG [RPS24A] | 1.92 ± 0.068
EKFSPKSFISKLLGIGD [SRP54] | 3.49 ± 0.14
EKGENPSCVYNLIGVIT [UBP6] | 2.64 ± 0.072
EKGSWEQLSPQDVLQML [BRR2] | 3.05 ± 0.12
EKKDSGSSKPAFSFGAK [YJL041W/NSP1] | 3.32 ± 0.1
EKLLKELENNEFTENEL [ITC1] | 3.43 ± 0.074
EKPDNSNHNNLNLNNSE [SNF2] | 3.02 ± 0.043
EKRIQYAKDILQKEFLP [RPB2] | 2.06 ± 0.055
EKRYDDKLLDFIRYDVK [CSN12] | 3.3 ± 0.063
EKTLGKSLSKAISTGAK [RPN7] | 2.98 ± 0.19
EKTMMTFGKPEEEDSIL [YCS4] | 3.27 ± 0.15
